Test results as given in patent US20150368613.

Tested on: Meis1

Substance: MYC-CUL4A
- steady-state levels (immunoblot): the HOX co-factor Meis1 was not subjected to CUL4A-mediated degradation
